Data published in the nanobody polyreactivity screen of Harvey et al. (2022).

Assay: yeast display, Sf9 membrane polyspecificity reagent, FACS + sequencing; frameworks hold sequencing errors
In short: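 Galactose-induced (36–48 hours) yeast carrying a synthetic nanobody display library were exposed to 10% biotinylated, detergent-solubilized Sf9 membrane reagent at 4 °C for 1 hour. FACS followed streptavidin microbead enrichment, using low and high (top ~1%) gates for expression (anti-HA) and reagent binding (streptavidin). Colony PCR, MiSeq 2 × 250 sequencing and CDR-length filtering followed. Labels for polyreactivity reflect the gate of origin.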

| Sequence | polyreactivity (PSR sort gate) |
| --- | --- |
| QVQLVESGGGLVQAGGSLRLSCAASGRIFGRNAMGWYRQAPGKEREFVARIRTSGGSTYYADSVKGRFTISRDNAKNTVYLQMISLTPEDTAVYYCAAAVYTSARGYDYWGQGTQVTVSS | high polyreactivity |
| QVQLVESGGGLVQAGGSLRLSCASSGSTFYYYAMGWYRPAPGKERELVAAITKSGGSTYYADSVKGRFTISRDNAKNTVYLQMNSLKPEVTAVYYCAAYLRSGYKFDYWGQGTQVTVSS | low polyreactivity |
| QVQLVESGGGLVQAGGSLRLSCAASGHIFNYYAMGWYRQAPGKERELVAAIRSGARTSYADSVKGRFTISRDNAKNTVNLQMNSLKPEDTAVYYCAAVGVAYLYPSDYWGQGTQVPVSS | high polyreactivity |
| QVQLVESGGGLVQAGGSLRLSCAASGFIFVKYAMGWYRQAPGKERELVAAISWSGGTTYYSDSVKGRFTISRDNAKNTVYLKMNSLKPEDTAVYYCAAEYYTGYFKYDYWGQGTQVTVSS | high polyreactivity |
| QVQLVESGGGLVQAGGSLRLSCAASGRTFVTYGMGWYRQAPGKERELVATIRSGTTTNYADSVKGRFTISRDNAKNTVYLQMNSLKPEDTAVYYCNARGLRASSRRYYYWGQGTQVTVSS | high polyreactivity |
| QFQLVESGGGLVQAGGSLRLSCAASGITFGTNAMGWYRQATGKERELVARISSSDASTYYADSVKGRFTISRDNGKNTVYLQMNSLKPEDTAVYYCAADIYVTGYFRYDYWGQGTQVTVSS | low polyreactivity |
| QVQLVESGGGLVQAGGSLRLSCAASGRTFGGYAMGWYRQAPGKERELDASITSGGSTYYADSVKGRFTISRDNAKNTVYLEMNSLKPEDTAVYYCAADTYFETSTRAIPSNAYWGQGTQVTVSS | low polyreactivity |
| HVQVVESGGGLVQAGGSLRLSCAASGRIFLLYTMGWYRQAPGKERELVAAISSDDSTNYADSVKGRFTISRDNAKNTVYIQMNSLKPEDTAVYYCAAGRKSYYRIYSEYVEFDYWGQGTQVTVSS | low polyreactivity |
| QVQLVETGGGLVQAGGSLRLSCAASGRTIVYYDMGWYRQAPGKEREFVSTITSSGGSTYYADSVKGRFTISRDNAKNTVYVQMNSLKPEDTAVYYCAAYPYIRYSKVSKYYYWGQGTQVTVSS | high polyreactivity |
| QVQLVESGGGLVQAGGSLRLSCAASGLTFGRNAMGWYRQAPGKERELVAAITFNGGSTYYADSVKGRFTISRDNAKNTVYLQMNSLKPEDTAVYYCAARLWRRSRFDYWGQGTQVTVSS | high polyreactivity |
| QVQLVESGGGLVQAGGSLRLSSAASGSTFPSYAMGWYRQAPGKERELVAAINSGGGTNYADSVKGRFTISRDNAKNTVYLQMNSLKPEDTAVYYCAKSRYDYTKTEGGYWGLGTQVTVSS | low polyreactivity |
| QVQLVESGGGLVQAGGSLRLSCAASGSTFGVNDMGWYRQAPGKEREFVADITTSGGSTYYADSVKGRFTISRDHAKNTVYLQMNSLKPEDTAVYYCAADLWPFEHDDYWGQGTQVTVSS | low polyreactivity |
| QVQLVESGGGLVQAGGSLRLSCAASGRTFAVYAMGWYRQAPGKERELVASIRLSGTRTYYADSVKGRFTISRDNAKNTVYLQMNSLKPEDTAVYYCAAKGTYSRGTFNGYRYDYWGQGTQVTVSS | high polyreactivity |
| QVQLVESGGGLVQAGGSLRLSCAMGWYRPAPGKERELVAGITGGGRTHYADSVKGRFTISRDNAKNTVYLQMNSLKPEDTAVYYCAAGGVRSQVPWSWYYYWGQGTQVTVSS | low polyreactivity |
| QVQLVETGGGLVQAGGSHRLSCAASGLTFYTYAMGWYRQAPGKERELVAAISTNGGSKYYADSVKGRFTISRDNAKNTVYLQRNCLKPEDTAVYYCAIEGGTYRIFNYWGQGTQVTVSS | low polyreactivity |
| QVQLVESGGGLVQAGGSLRLSCAASGSTFAIYAMGWYRQAPGKERELVAAINSGGSTNYADSVKGRFTISRDNAKNTVYLQMNSLKPEDTAVYYCNTDAWHETPVSGYSWGQGTQVTVSS | low polyreactivity |
| QDQLVESGGGLVQAGGSLRLICAASGSIFEPYVMGWYRQAPGKERELVAAIRQTGGSTYYADSVKGRFTISRDNAKNTVYLQMNSLKPEDTAVYYCNAEQNPSGLYDYRGVEGEMGYWGQGTQVTVSS | low polyreactivity |
| QVQLQESGGGLVQAGGTLRLSCAASGSFSADEDMGWYRQAQGKEREFVAGISVGGNTNYADSVKGRFTISRENAKNTVYLQMNILKPEDTAVYYCNARLLYLGSGFYYWGQGTQVTVSS | high polyreactivity |
| QVQLVESGGGLVQAGGILRLSCAASGSIFSPNAKGWYRQAPGKVRQLVAAIDFSAGSTYYADSVKGRFTISRDNAKNTVYLQMHSLKPEDTAVYYCAADYYYSYCYWFSSSYGYWGPGTQVTVSS | high polyreactivity |
| QVQLVESGGGLVQAGGSLRLSCAASGFTFSYNAMGWYRQAPGKERELVAAIDWGGGSTYSYSVKGRFTISRDNAKNTVYLQMNSLKPEDTAVYYCAAYIPSSGRNPEIGVEYDYWGQGTQVTVSS | low polyreactivity |
| QVQLVESGGGLVQAGGSLRLSCASSGRIFGLYAMGWNRQAPGKERELVAAISRGGGSTYYADSVKGRFTISRDNAKNTVYLQMNSLKPEDTAVYYCATGLGYFSRLDYWGQGTQVTVSS | low polyreactivity |
| QVHLVESGGGLVKAGGSLRISCAASGRTFVCYAMGCYRPAPGKERELVAAISSGGSTNYADSVKGRFTISRDNAKNTVYLLMICLKPEDTAVYYCNRRSYQRGWHWARGRYGFWGQGTQVTVSS | high polyreactivity |

| Sequence | polyreactivity (PSR sort gate) |
| --- | --- |
| RVQLQESGGGLVQAGGSLRLICAASGTNFIRGDMGWYRQAPGKEREFVATIDNGSNTYYADSEKGRFTISRDNAKNAVYLQMNCLKPGDTAVYYCVVDYQLSGRLRYWGQGTQVTLSS | low polyreactivity |
| QVQLVESGGGLVQAGGSLRLSCAASGSIFIYYAMGWYRQAPGKERELVADITFSAGSNTYYADSVKGRFTISRDNAKNTVYLQMNSLKPEDTAVYYCNADRGFIGSITEYDYWGQGTQVTVSS | low polyreactivity |
| QVQLVESGGGLVQAGGSLRLSCAASGRIFHVNAMGWYRQAPGKEMDLVAAISTSGGRTYYADSVKGRFTISRDNAKNTVYLQMNSLKPEDTAVYYCAAVSRAPGLRYDYWGQGTQVTVSS | high polyreactivity |
| QVQLVESGGGFVQAGGSLRLSCAASGSIFYYNAMGWYRQAPGKEREFVAAITTSAGSTYYADSVKGRFTISRDNEKNTVYLQMYRLKPEDTAVYYCAASPGRRRRPYASLFRYDYWGQGTQVTVSS | high polyreactivity |
| QVQLVESGGGLVQAGGSLRLSCAASGRTFGYYAMGWYRQAPGKERELVAAITRSGDRTYYADSVKGRFTISRDNAKNTVYLQLNSLKPEDTAVYYCARYAYLISDYWGQGTQVTVSS | high polyreactivity |
| QVQLVESGGGFVQAGGSVRLSCAASGRIFKYAMGWYIPAPGKERELVAAITHKGGSTYADSEKGRFTISRDNAKTTVYIQLNSRKPEDTAVYYCAAYYYYGKGYRRFDYWGQGTQVTVSS | low polyreactivity |
| QVQLVESGGGLVQAGGSLRLSCAASGRTFEYNAMGWYRQAPGKERELVATIRYSGTSTYADSVKGRFTISRDNAKNTVYFQMNSLKPEDTAVYYCAKQVRYYGYKYNYWGQGTQVTVSS | high polyreactivity |
| HVQLVESGGGLVQAGGSLRLSFAASGFTFRSYAMGWYRKAPGQERELVAAINWRGDSTYYADSVKGRFTISRDNAKNTVYLQMNSLNPEDTAVYYCNAYSGYIRRTASDYWGQGTQVTVSS | high polyreactivity |
| QVQHVESARGLVPAGGSLRLSCAASGFTVIRYAMGRYRQAPGKERELVAAIRGTGTSTYYADSVKGRFTISRDIAKNTVYLQLNSLKPEDTAVYYCNKVAGRSPYTRYDYWGQGTQVTVSS | low polyreactivity |
| QVQHVESGGGLVQAGCSLRLSCAASGRIFRLYAMGWYRQARGKERELVAAISSRGGDTYADSVKGRFTISRDNAKNTVYLQMNSLKPEDTAVYYCNAVIYYPYKYGVWYYEYDYWGQGTQVTVSS | low polyreactivity |
| QVQLVESGGGLVQAGGSLRLSCAASGIIFITYAMGWYRQAPGKERELVAAITSDGNTNYADSVKGRFTISRDNAKNTVYLQMNSLKPEDTAVYYCNAETQYGVLSWHSTRHDYWGQGTQVTVSS | low polyreactivity |
| QVQLVESGGGLDQAGGSLRLSCAASGSIISGYAMGWYRQAPGKERELVAAISSSGGRTYYADSVKGRFTISRDNAKNTVYLQMNSLKPEDTAVYYCNARQFSRYDYNYWGQGTQETVSS | high polyreactivity |
| QVQLVESGGGLVQAGGSLRLSCAASGIIFTYYAMGWYRQAPGKERELVAAISVSGSSTYYADSVKGRFTISRDNAKNTVYLQMNSLKPEDTAVYYCAARYQWGTRGFGYWGQGTLVTVSS | high polyreactivity |
| QVQFVESGGGLVQAGGSLRVSCAASGSTFQGYAMGWSRQAPGKERELVAAISRSGGRTYYADSVKGRFTISRDNAKNTVYLQMNSLKPEDTAVYYCAAEGHELTEGDSWGQGTQVTVSS | low polyreactivity |
| QFQLVESGGGLVQAGASLRLSCAASVSTFRPYAMGWYRQAPGKERELVAAISSGDSTYYADSVKGRFTISRDNGKNTVYLQMNSLIPDDTAVYYCAKRNYWHRGGGYWGLGTQVTVSS | high polyreactivity |
| QVQLVESGGGLVQAGGSLRLSCAASGSTFVSNVMGWYRQAPGKERELVAAITRGGSTKYADSVKGRFTISRDNAKNSVYLQMNSLKPEDTAVYYCAKRLYTRPGWYDYWGQGTQVTVSS | high polyreactivity |
| QVQLVESGGGLVQAGGSLRLSCAASGLNFRRNAMRWYRQAPGKERELVAVIDRGGRTNYADSVKGRFTISRDNAKTTVYLQMNSLKPEDTAVYYCAKRYASTSGYWGQGTQVTVSS | high polyreactivity |
| QVQLVESGGGLVQAGGSLRLSCAASGRTFYVYDMGWYRQAPGKERELVAAISNICTRTYYADSVKGRFTISRDNAKNTVYLQMNSLKPEVTAVYYCATGRSRVYKGRGDYWGQGTHVTVSS | high polyreactivity |
| QVQRVESRVSLVQEGGSLRLSCASSGLIYYRYTMGCYINAPVKEREVFAAISSGGRTYYADSVKGRFTISRDNAKNTVYLQMNSLKPEDTAVYYCATRVYSVHAPSAVPIGGYYWGQGTQVTVSS | high polyreactivity |
| QVQLVESGGGLVQAGGSLRLSCAASGSTFSRNVMAWYRQAPGKDRELVAAISRGGSTNYADSVKGRFTISRDNAKNTVYLQMNSLKPEDTAVYYCNAPRLGKFYYWGQGTQVTVSS | low polyreactivity |
| QVQLVESGGGLVQAGGSLRLSCAASGSTFEGNDMGWYRQAPGKERELVAAITTGAGTNYADSVKGRFTISRDNAKNTVYLQMNSLKPEDTAVYYCATRVYWYYDPYYSKYTYDYWGQGTQVTVSS | low polyreactivity |
